The source of these data is patent US10450368 (DUKE UNIVERSITY, dated 2019).

Test [1] has as its target T1, CH505.TF mutant gp120 M6 (HIV-1).
T1 construct: domain: gp120
As to the kind of experiment: direct-binding ELISA (OD450), panel 'CH505.TF gp120 M6'. (In general: In an ELISA, binding on a coated surface is turned into a signal by an enzyme label.)

Test [2] has as its target T2, Sm (Smith antigen).
T2 construct: Protein complex
As to the kind of experiment: AtheNA, Ab 50 ug/ml.
From the text: (§1) AtheNA Multi-Lyte ANA Plus Test System is one such assay. This is luminex-based assay, which is also used to screen patient sera.

Test [3] deals with T3, SSA.
T3 construct: also called SSA (Ro)
As to the kind of experiment: AtheNA, Ab 50 ug/ml.
From the text: as §1

Test [4] concerns the target T4, Scl-70 (UniProt P11387 1-765).
T4 sequence: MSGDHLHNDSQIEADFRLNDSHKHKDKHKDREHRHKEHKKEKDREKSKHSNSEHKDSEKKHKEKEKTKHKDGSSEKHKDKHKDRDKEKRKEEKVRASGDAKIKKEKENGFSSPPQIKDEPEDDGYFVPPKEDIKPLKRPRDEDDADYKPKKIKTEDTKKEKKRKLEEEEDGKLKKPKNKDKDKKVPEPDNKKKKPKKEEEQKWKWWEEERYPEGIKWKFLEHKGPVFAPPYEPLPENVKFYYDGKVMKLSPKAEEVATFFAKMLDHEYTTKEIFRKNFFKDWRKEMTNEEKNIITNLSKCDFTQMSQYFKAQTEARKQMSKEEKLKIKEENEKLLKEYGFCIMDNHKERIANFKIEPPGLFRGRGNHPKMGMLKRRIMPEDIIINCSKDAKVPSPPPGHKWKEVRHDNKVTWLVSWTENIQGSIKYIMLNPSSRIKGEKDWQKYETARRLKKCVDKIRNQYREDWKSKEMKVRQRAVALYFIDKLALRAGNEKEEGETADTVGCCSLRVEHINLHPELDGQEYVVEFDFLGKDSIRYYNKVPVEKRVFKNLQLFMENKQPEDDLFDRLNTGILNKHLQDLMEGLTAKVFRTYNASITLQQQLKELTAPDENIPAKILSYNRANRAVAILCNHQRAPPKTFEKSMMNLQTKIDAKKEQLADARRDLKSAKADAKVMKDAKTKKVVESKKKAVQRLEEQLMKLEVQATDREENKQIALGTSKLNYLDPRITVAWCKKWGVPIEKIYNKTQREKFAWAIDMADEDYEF
As to the kind of experiment: AtheNA, Ab 50 ug/ml.
From the text: as §1

Test [5] concerns the target T5, Histones.
T5 construct: Mixture of proteins
Kind of test: AtheNA, Ab 50 ug/ml.
From the text: as §1

The target in test [6] is T6, SSB (UniProt P05455 1-408).
T6 sequence: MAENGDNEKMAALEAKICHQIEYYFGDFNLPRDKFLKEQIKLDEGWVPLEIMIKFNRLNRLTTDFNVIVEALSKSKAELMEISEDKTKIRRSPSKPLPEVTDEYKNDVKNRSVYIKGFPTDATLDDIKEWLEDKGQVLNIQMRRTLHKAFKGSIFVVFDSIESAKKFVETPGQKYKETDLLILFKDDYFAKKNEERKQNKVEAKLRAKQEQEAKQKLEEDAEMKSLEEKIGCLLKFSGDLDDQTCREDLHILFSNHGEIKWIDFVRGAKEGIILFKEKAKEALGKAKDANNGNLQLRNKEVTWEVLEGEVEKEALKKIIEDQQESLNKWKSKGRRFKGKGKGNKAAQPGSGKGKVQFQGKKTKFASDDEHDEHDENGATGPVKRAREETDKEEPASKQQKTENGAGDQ
Kind of test: AtheNA, Ab 50 ug/ml.
From the text: as §1

Test [7] deals with T2, Sm (Smith antigen). Kind of test: AtheNA, Ab 25 ug/ml.
From the text: as §1
For test [8], the target named is T3, SSA. Kind of test: AtheNA, Ab 25 ug/ml.
From the text: as §1
Test [9] deals with T4, Scl-70. As to the kind of experiment: AtheNA, Ab 25 ug/ml.
From the text: as §1
Test [10] concerns the target T7, RNP (ribonucleoprotein).
T7 construct: Protein-RNA complex
Kind of test: AtheNA, Ab 25 ug/ml.
From the text: as §1

Test [11] concerns the target T5, Histones. Kind of test: AtheNA, Ab 25 ug/ml.
From the text: as §1
Test [12] addresses T6, SSB. Kind of test: AtheNA, Ab 25 ug/ml.
From the text: as §1
In test [13] the target is T2, Sm (Smith antigen). As to the kind of experiment: AtheNA, Ab 12.5 ug/ml.
From the text: as §1
Test [14] has as its target T3, SSA. Kind of test: AtheNA, Ab 12.5 ug/ml.
From the text: as §1
Test [15] concerns the target T4, Scl-70. Kind of test: AtheNA, Ab 12.5 ug/ml.
From the text: as §1
The target in test [16] is T7, RNP (ribonucleoprotein). As to the kind of experiment: AtheNA, Ab 12.5 ug/ml.
From the text: as §1
Test [17] concerns the target T5, Histones. As to the kind of experiment: AtheNA, Ab 12.5 ug/ml.
From the text: as §1
The target in test [18] is T6, SSB. Kind of test: AtheNA, Ab 12.5 ug/ml.
From the text: as §1
Test [19] deals with T2, Sm (Smith antigen). As to the kind of experiment: AtheNA, Ab 50 ug/ml. This is another data set of the same source.
Test [20] concerns the target T3, SSA. Kind of test: AtheNA, Ab 50 ug/ml. This is another data set of the same source.
Test [21] addresses T7, RNP (ribonucleoprotein). As to the kind of experiment: AtheNA, Ab 50 ug/ml.
Test [22] has as its target T8, Jo-1 (UniProt P12081 1-509).
T8 sequence: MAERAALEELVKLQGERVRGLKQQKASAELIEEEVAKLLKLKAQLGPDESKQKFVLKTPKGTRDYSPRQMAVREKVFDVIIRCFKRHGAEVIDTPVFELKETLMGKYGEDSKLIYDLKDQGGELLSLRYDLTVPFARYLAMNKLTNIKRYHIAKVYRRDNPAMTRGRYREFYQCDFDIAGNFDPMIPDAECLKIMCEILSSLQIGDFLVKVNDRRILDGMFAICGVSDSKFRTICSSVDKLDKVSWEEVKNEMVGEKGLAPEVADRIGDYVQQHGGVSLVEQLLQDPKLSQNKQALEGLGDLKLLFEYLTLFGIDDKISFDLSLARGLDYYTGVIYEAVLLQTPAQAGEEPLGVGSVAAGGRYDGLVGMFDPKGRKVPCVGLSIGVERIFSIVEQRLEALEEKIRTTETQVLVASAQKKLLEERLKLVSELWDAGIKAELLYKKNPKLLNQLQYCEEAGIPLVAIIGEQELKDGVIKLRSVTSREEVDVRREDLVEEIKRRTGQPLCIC
Kind of test: AtheNA, Ab 50 ug/ml.

Test [23] concerns the target T6, SSB. Kind of test: AtheNA, Ab 50 ug/ml. This is another data set of the same source.

B1: CH493 (antibody, V domains shown)
VH: QVRLLQYGGGVKRPGASMTISCVASGYNFNDYYIHWVRQAPGQGLELMGWIDPSGGRTDYAGAFGDRVSMYRDKSMNTLYMDLRSLRSGDTAMYYCVRNVGTAGSLLHYDHWGLGVMVTVSS
VL: EIVLTQSPATLSVSPGERVTLSCRASQSVRNNLAWYRQKRGQAPRLLIYGASTRATGIPARFSGSGSGTEFTLTISSMQSEDFAVYYCQQYNNWWTFGQGTKVEIK
notes: also called CH235.9; DH493
What is called EC50 (read off the curve) is the midpoint of the concentration-response curve. A low value points to an effect from little substance. In the case of B1, in [1], the “EC50 (read off the curve)” value was around 0.5 µg/mL. The AtheNA signal in test [2] is 37; in test [3] it was 155; in test [4], 36; in [5], 166; in [6] it was 70; in [7] it was 53. For the same molecule, the AtheNA signal was 100 in test [8]; 34 in test [9]; 55 in [10]; 202 in test [11]; 38 in test [12]; 42 in test [13]. The AtheNA signal in [14] came to 54; in [15] it was 26; in test [16] it was 49; in test [17], 200; in [18], 22.

B2: CH557 (antibody, V domains shown)
VH: QVRLAQYGGGVKRLGATMTLSCVASGYTFNDYYIHWVRQAPGQGFELLGYIDPANGRPDYAGALRERLSFYRDKSMETLYMDLRSLRYDDTAMYYCVRNVGTAGSLLHYDHWGSGSPVIVSS
VL: EIVLTQSPATLSASPGERVTLTCRASRSVRNNVAWYQHKGGQSPRLLIYDASTRAAGVPARFSGSASGTEFTLAISNLESEDFTVYFCLQYNNWWTFGQGTRVDIK
notes: also called CH235.12; CH557_4A/293i
For B2, the AtheNA signal in test [19] was 8 relative luminescence units; in [20], 6 relative luminescence units; in test [21] it was 10 relative luminescence units; in [22] it was 10 relative luminescence units; in test [23], 15 relative luminescence units.
